Bridge positions count the residues as written; N and C are the ends. Square brackets hold non-standard residues; d marks the D form. Ends that are not written are not given here. Dap = NC[C@H](N)C(=O)O
What was measured:
Experiment in all cases: cell-based or functional assay
ComD2 receptor [1] = biological target: T1, ComD2 receptor (Streptococcus pneumoniae)
ComD1 receptor [2] = biological target: T2, ComD1 receptor (Streptococcus pneumoniae)
ComD2 receptor [3] = biological target: T1, ComD2 receptor; remark: listed apart in the source
ComD1 receptor [4] = biological target: T2, ComD1 receptor; remark: listed apart in the source
ComD1 receptor [5] = biological target: T2, ComD1 receptor; remark: listed apart in the source
ComD2 receptor [6] = biological target: T1, ComD2 receptor; remark: listed apart in the source

With EMRLSXFFRDFILQRKK (Dab at position 6; side chain-to-side chain lactam between Dab6 and Asp10) [CSP1-cyc(Dab6D10)] the “EC50 (reporter strain)” value (ComD2 receptor [1]) was over 1000 nM and the “EC50 (reporter strain)” value (ComD1 receptor [2]) was 59.5 nM.

For AMRLSXFFREFILQRKK (Dab at position 6; side chain-to-side chain lactam between Dab6 and Glu10) [CSP1-E1A-cyc(Dab6E10)], the “EC50/IC50 (kind not distinguishable; β-gal reporter)” value (ComD2 receptor [3]) was over 1000 nM, the “IC50 (ComD1 EC50/IC50; β-gal reporter)” value (ComD1 receptor [4]) was 173 nM and the “EC50/IC50 (kind not distinguishable; reporter strain)” value (ComD2 receptor [1]) was over 1000 nM. The “IC50 (reporter strain)” value (ComD1 receptor [2]) was 173 nM.

EMRLSKFFRKFILDRKK (lactam 10-14) [CSP1-cyc(K10D14)] was tested, and the “EC50 (reporter strain)” value (ComD1 receptor [2]) was 257 nM.

EMRLSKFFREFILQRKK (lactam 6-10) [CSP1-cyc(K6E10)] was tested, and the “EC50 (reporter strain)” value (ComD2 receptor [1]) was over 1000 nM and the “EC50 (reporter strain)” value (ComD1 receptor [2]) was 350 nM.

With EMRLSAFFRDFILQRKK [CSP1-K6A] the “EC50 (ComD2 EC50/IC50; β-gal reporter)” value (ComD2 receptor [3]) was 24 nM and the “EC50 (ComD1 EC50/IC50; β-gal reporter)” value (ComD1 receptor [4]) was 51 nM.

For EMRLSXFFREFILQRKK (Dab at position 6; side chain-to-side chain lactam between Dab6 and Glu10) [CSP1-cyc(Dab6E10)], the “fold potency compared to CSP1-cyc(Orn6D10)” value (ComD1 receptor [5]) was 10 fold, the “maximal induction of comX compared to CSP1” value (ComD1 receptor [5]) was 100% and the “EC50 (reporter strain)” value (ComD2 receptor [1]) was 31.4 nM. For the same binder, the “EC50 (reporter strain)” value (ComD1 receptor [2]) was 12.2 nM.

For AMRLSKFFRDFILQRKK [CSP1-E1A], the “EC50/IC50 (kind not distinguishable; β-gal reporter)” value (ComD2 receptor [3]) was over 10000 nM and the “IC50 (ComD1 EC50/IC50; β-gal reporter)” value (ComD1 receptor [4]) was 85.7 nM.

AMRLS[Dap]FFREFILQR (lactam 6-10) [CSP1-E1A-des-K16K17-cyc(Dap6E10)] was tested, and the “fold inhibition potency compared to CSP1-E1A-cyc(Dap6E10)” value (ComD2 receptor [6]) was 3 fold, the “fold inhibition potency compared to CSP1-E1A-cyc(Dap6E10)” value (ComD1 receptor [5]) was about 10 fold and the “IC50 (ComD2 EC50/IC50; β-gal reporter)” value (ComD2 receptor [3]) was 67.2 nM. For the same binder, the “IC50 (ComD1 EC50/IC50; β-gal reporter)” value (ComD1 receptor [4]) was 7.57 nM, the “IC50 (reporter strain)” value (ComD2 receptor [1]) was 67.2 nM and the “IC50 (reporter strain)” value (ComD1 receptor [2]) was 7.57 nM.

For EMRLSKFFRDFILQRKK [CSP1 (competence stimulating peptide 1)], the “EC50 (ComD1 EC50/IC50; β-gal reporter)” value (ComD1 receptor [4]) was 10.3 nM and the “EC50 (reporter strain)” value (ComD1 receptor [2]) was 10.3 nM.

EMRLSKFFDDFILQRKK (lactam 6-9) [CSP1-cyc(K6D9)] was tested, and the “EC50 (reporter strain)” value (ComD2 receptor [1]) was 528 nM and the “EC50 (reporter strain)” value (ComD1 receptor [2]) was over 1000 nM.

With AMRLS[Dap]FFREFILQRKK (lactam 6-10) [CSP1-E1A-cyc(Dap6E10)] the “fold inhibition potency compared to CSP2-E1Ad10” value (ComD2 receptor [6]) was 3 fold, the “IC50 (ComD2 EC50/IC50; β-gal reporter)” value (ComD2 receptor [3]) was 182 nM and the “IC50 (ComD1 EC50/IC50; β-gal reporter)” value (ComD1 receptor [4]) was 75.8 nM. For the same binder, the “IC50 (reporter strain)” value (ComD2 receptor [1]) was 182 nM and the “IC50 (reporter strain)” value (ComD1 receptor [2]) was 75.8 nM.

B1: CSP1-cyc(Orn6D10) (peptide)
peptide: EMRLSXFFRDFILQRKK
modifications: Orn (ornithine) at position 6; side chain-to-side chain lactam between Orn6 and Asp10
B1 was tested, and the “fold decrease in fold potency compared to CSP1-cyc(Dab6E10) and CSP1-cyc(Dap6E10)” value (ComD2 receptor [6]) was over 30 fold, the “maximal induction of comX compared to CSP1” value (ComD1 receptor [5]) was 100% and the “EC50 (reporter strain)” value (ComD2 receptor [1]) was over 1000 nM. For the same binder, the “EC50 (reporter strain)” value (ComD1 receptor [2]) was 193 nM.

For EMRISRIIL[dD]FLFLRKK [CSP2-d10], the “EC50 (ComD2 EC50/IC50; β-gal reporter)” value (ComD2 receptor [3]) was 2.86 nM and the “EC50 (ComD1 EC50/IC50; β-gal reporter)” value (ComD1 receptor [4]) was 513 nM.

With EMRLSKFFDDFILQRKK [CSP1 with Arg9 replaced with Asp (linear)] the “fold reduction in potency against CSP1” value (ComD1 receptor [5]) was over 100 fold.

EMRLSKFFRDFILQRKK (lactam 6-10) [CSP1-cyc(K6D10)] was tested, and the “maximal induction of comX compared to CSP1” value (ComD1 receptor [5]) was 44% and the “EC50 (reporter strain)” value (ComD1 receptor [2]) was 258 nM.

For EMRISRIILDFLFLRKK [CSP2 (competence stimulating peptide 2)], the “EC50 (ComD2 EC50/IC50; β-gal reporter)” value (ComD2 receptor [3]) was 50.7 nM, the “EC50 (ComD1 EC50/IC50; β-gal reporter)” value (ComD1 receptor [4]) was 1650 nM and the “EC50 (reporter strain)” value (ComD2 receptor [1]) was 50.7 nM. The “EC50 (reporter strain)” value (ComD1 receptor [2]) was 1650 nM.

B2: CSP1-cyc(Orn6E10) (peptide)
peptide: EMRLSXFFREFILQRKK
modifications: Orn (ornithine) at position 6; side chain-to-side chain lactam between Orn6 and Glu10
B2 was tested, and the “EC50 (reporter strain)” value (ComD2 receptor [1]) was over 1000 nM and the “EC50 (reporter strain)” value (ComD1 receptor [2]) was 422 nM.

With EMRLSXFFRDFILQRKK (Dap at position 6; side chain-to-side chain lactam between Dap6 and Asp10) [CSP1-cyc(Dap6D10)] the “EC50 (reporter strain)” value (ComD2 receptor [1]) was over 1000 nM and the “EC50 (reporter strain)” value (ComD1 receptor [2]) was 435 nM.

EMRLSKFFRDFILDRKK (lactam 6-14) [CSP1-cyc(K6D14)] was tested, and the “EC50 (reporter strain)” value (ComD2 receptor [1]) was over 1000 nM and the “EC50 (reporter strain)” value (ComD1 receptor [2]) was over 1000 nM.

With EMRLSXFFREFILQRKK (Dap at position 6; side chain-to-side chain lactam between Dap6 and Glu10) [CSP1-cyc(Dap6E10)] the “fold potency compared to CSP2” value (ComD2 receptor [6]) was about 4 fold, the “fold potency compared to CSP1-cyc(Orn6D10)” value (ComD1 receptor [5]) was 10 fold and the “maximal induction of comX compared to CSP1” value (ComD1 receptor [5]) was 100%. For the same binder, the “EC50 (reporter strain)” value (ComD2 receptor [1]) was 13.1 nM and the “EC50 (reporter strain)” value (ComD1 receptor [2]) was 14.6 nM.

With AMRISRIIL[dD]FLFLRKK [CSP2-E1Ad10] the “IC50 (ComD2 EC50/IC50; β-gal reporter)” value (ComD2 receptor [3]) was 56.5 nM and the “EC50/IC50 (kind not distinguishable; β-gal reporter)” value (ComD1 receptor [4]) was over 1000 nM.

— patent US20220227814A1 (NEVADA RESEARCH AND INNOVATION, published 2022)
